From publication PMC6513101, “Experimentally guided computational antibody affinity maturation with de novo docking, modelling and rational design” (PLoS Computational Biology, 2019)
Substitutions are numbered along the chain they refer to. Names may count otherwise. Blank lines part the entries; values can stand above or below the binder they belong to.

How the values were obtained:
[1] = target: T1, biotinylated murine CCL20, O89093; assay: capture ELISA; conditions: chain shown with the change; highest mAb concentration, log[nM] about 1.8; plate-coated anti-Fc antibody to capture the antibody variants; parent: est. 1.8; read off a plot
T1 chain: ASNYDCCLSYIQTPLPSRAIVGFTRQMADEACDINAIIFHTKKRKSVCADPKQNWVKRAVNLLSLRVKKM

[2] = target: T2, biotinylated murine CCL20 (Mus musculus, UniProt O89093, biotin); assay: ELISA; capture ELISA: plate-coated anti-mouse Fc antibody (1 ug/mL) captures the antibody variant (5 ug/mL); biotinylated muCCL20 titrated from 0 to 600 nM, 1 h; conditions: both partners purified
T2 construct: CCL20, mouse; recombinant; m2 with biotin; also called biotinylated muCCL20; muCCL20 antigen; source: in-house, standard mammalian cell expression; biotinylated

[3] = target: T3, murine CCL20 (Mus musculus, UniProt O89093); assay: SPR; Biacore T200; muCCL20 immobilised on a CM4 chip (~30 RU); Fab 0.02-50 nM at 100 uL/min; HBS-EP pH 7.4; 1:1 model; apparent KD = koff/kon; conditions: both partners purified
T3 construct: CCL20, mouse; recombinant; also called muCCL20; mouse CCL20; source: in-house, standard mammalian cell expression; purified

[4] = target: T4, murine CCL20 (mouse, UniProt O89093 28-97); assay: SPR
T4 chain: T1 chain

[5] = target: T4, murine CCL20; assay: SPR
[6] = target: murine CCL20 (mouse) (UniProt O89093)
[7] = target: T3, murine CCL20; assay: ELISA; mouse or human CCL20 coated at 2 ug/mL on Maxisorp plates overnight at 4°C; antibody dilutions starting at 60 nM; detected with anti-Fc-HRP; conditions: both partners purified

- response [1]: 0.86 A450
- binding result [2]: binds
B1: AB1 alanine variant 7 (H:S28A, H:N113A, L:K36A) (antibody, V domains shown)
VH: QVQLQQSGAELAKPGSSVKISCKAYGASFTTNSIHWIKQTTGQALEWTGYIAPGSGGARYNEKFKGKATLTVDKSSGTAYMQLSSLTPVDTAVYYCALNIGTAPFTYWGQGTLVTVSS
VL: DIVMTQGALPNPVPSGESVSITCRSSKSLLYSDGATYLNWYLQRPGQSPQLLIYWMSTRASGVSDRFSGSGSGTDFTLKISGVEAEDVGVYYCQQGLEFPRTFGSGTKLEIK
notes: IMGT numbering; IgG1, as m1; source: HEK293FT, transiently transfected, purified (Protein A)

- binding result [3]: binds
- koff [4]: 0.007 s⁻¹
- Kd [5]: 8.4 nM
B2: AB1-C16 Fab fragment (L:G35Y) (Fab, V domains shown)
VH: B1 VH with A27S, A103N
VL: B1 VL with G34Y, A35K
notes: IMGT numbering; Fab of m43; source: papain cleavage of the purified antibody; purified by anion and cation exchange chromatography

- binding result [3]: binds
- koff [4]: 0.0042 s⁻¹
- Kd [5]: 2.8 nM
B3: AB1-C1-16 Fab fragment (H:S28R, L:G35Y) (Fab, V domains shown)
VH: B1 VH with A27R, A103N
VL: B1 VL with G34Y, A35K
notes: IMGT numbering; Fab of m48; also called combination clone AB1-C1-16; source: papain cleavage of the purified antibody; purified by anion and cation exchange chromatography

- fold decrease in antibody IC50 against parental AB1, CCR6 CHO-K1 β-arrestin assay with 4 nM muCCL20; blocks muCCL20 with muCCR6 [6]: 2 fold
- binding result [2]: binds
B4: AB1-C16 (L:G35Y) (antibody, V domains shown)
VH: B1 VH with A27S, A103N
VL: B1 VL with G34Y, A35K
notes: IMGT numbering; IgG1, as m1; also called clone 16; VL clone 16; source: HEK293FT, transiently transfected, purified (Protein A)

- fold decrease in antibody IC50 against parental AB1, CCR6 CHO-K1 β-arrestin assay with 4 nM muCCL20; blocks muCCL20 with muCCR6 [6]: 4 fold
B5: AB1-C1 (H:S28R) (antibody, V domains shown)
VH: B1 VH with A27R, A103N
VL: B1 VL with A35K

- fold decrease in antibody IC50 against parental AB1, CCR6 CHO-K1 β-arrestin assay with 4 nM muCCL20; blocks muCCL20 with muCCR6 [6]: 4 fold
- binding result [2]: binds
B6: AB1-C1-16 (H:S28R, L:G35Y) (antibody, V domains shown)
VH: B1 VH with A27R, A103N
VL: B1 VL with G34Y, A35K
notes: IMGT numbering; IgG1, as m1; also called clone 1–16; combination clone; source: HEK293FT, transiently transfected, purified (Protein A)

- binding result [7]: binds
- binding result [2]: binds
B7: AB1 anti-muCCL20 monoclonal antibody (antibody, V domains shown)
VH: B1 VH with A27S, A103N
VL: B1 VL with A35K
notes: VH of AB1; VL of AB1; IgG1 (in-house mammalian expression vector); hybridoma derived; also called WT AB1; parental AB1; source: HEK293FT, transiently transfected, purified from supernatant (Protein A)

- fold improvement in KD against parental AB1 [3]: 4 fold
- koff [4]: 0.0029 s⁻¹
- Kd [5]: 2.3 nM
B8: AB1-C1 Fab fragment (H:S28R) (Fab, V domains shown)
VH: B1 VH with A27R, A103N
VL: B1 VL with A35K
notes: IMGT numbering; Fab of m28; also called Clone AB1-C1; source: papain cleavage of the purified antibody; purified by anion and cation exchange chromatography
